Reference: US20250268939A1

Target: BAFF-R Liama IgG2b Fc Tag recombinant protein (Acro, Cat. No.: BAR-H5258) (UniProt Q96RJ3)
Assay: flow cytometry; control T cells expressing only EGFRt incubated with BAFF-R llama IgG2b Fc protein at 10 ug/mL, detected with FITC-anti llama IgG

Chain of UniProt Q96RJ3 (Q96RJ3 7-71): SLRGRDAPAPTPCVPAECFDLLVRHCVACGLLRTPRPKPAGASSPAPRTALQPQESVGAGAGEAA

EGFRt (from UniProt P00533 334-668) (receptor)
positive rate: 0.65%
